According to the supplement of paper PMC9170038:

Tested on: MS2 coat protein
Assay: apparent KD of MS2 coat protein; higher = weaker reporter binding
Settings: Eterna round: R107
Procedure: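 RNA-MaP round R107: designed RNA switches with theophylline, tryptophan, arginine or FMN aptamers are transcribed on-chip within common flanks. They are titrated with SNAP-549-labelled MS2 coat protein in RNA-MaP buffer (100 mM Tris pH 7.5, 80 mM KCl, 4 mM MgCl2), without ligand or with the indicated ligand. Median apparent KD per design.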

[1] = input ligand: theophylline 20 uM
[2] = input ligand: theophylline 2 mM
[3] = input ligand: tryptophan 2.4 mM

Which “apparent KD of MS2 coat protein” value (input ligand: arginine 13.2 mM) does the source give for “CCUCAAUCGUCGGCCGCCACUGAAUCAUGCGGAUACAUGAGGAUCACCCAUGUGGGUGUGGUACGCAGGACCGGGACAAGACCCG [#14 Same State - Tryptophan B]” here?
Its value is 154 nM.

And the “apparent KD of MS2 coat protein” value (input ligand: none)?
Its value is 203 nM.

And the “apparent KD of MS2 coat protein” value [1]?
Its value is 337 nM.

And the “apparent KD of MS2 coat protein” value [2]?
Its value is 860 nM.

What about the “apparent KD of MS2 coat protein” value [3] of the same sequence?
The value was 152 nM.

With “GGGUGGUAGGCGGCCGCCACUGAUUUUUAUUUAUAGAUGACAUGAGGAUCACCCAUGUUGAUAUGCAGGACCGGGCCUGUUGUUG [aaaP]” as the sequence, how does the “apparent KD of MS2 coat protein” value (input ligand: arginine 13.2 mM) read?
Its value is 10.9 nM.

What about the “apparent KD of MS2 coat protein” value [1] of the same sequence?
Its value is 19.7 nM.

What about the “apparent KD of MS2 coat protein” value [2] of the same sequence?
Its value is 15.4 nM.

How did the “apparent KD of MS2 coat protein” value (input ligand: arginine 13.2 mM) turn out when “GGAUAGGACACGGCCGCCACUAGCUAGGAUACUAGCAACAUUUCCUCAUCUGAGGAUCACCCAGGUAGGACCGGGUGUCCUAUCG” was run?
Its value is 172 nM.

And the “apparent KD of MS2 coat protein” value [1]?
The value was 683 nM.

What about the “apparent KD of MS2 coat protein” value [2] of the same sequence?
The value was 1070 nM.

And the “apparent KD of MS2 coat protein” value [3]?
Its value is 565 nM.

How did the “apparent KD of MS2 coat protein” value (input ligand: arginine 13.2 mM) turn out when “GGUACAUGAGGAUCACCCAUGUAUUGGUACCGAGGACCGGUACGGCCGCCACUCGCAUGACAUGAGGAUCACCCAUGUGAAACCU [SSTA DOUBLE!!! :-D #12]” was run?
The value was 29.3 nM.

What about the “apparent KD of MS2 coat protein” value [1] of the same sequence?
Its value is 51.6 nM.

What about the “apparent KD of MS2 coat protein” value [2] of the same sequence?
Its value is 59.9 nM.

“AUAAUAAUGUCGGCCGCCACUAUAAACAUGAGGAACAUGAGGAUCACCCAUGUAUGAGGAUCACCUAGGACCGGGACUAAUAUUA [AstrosExyTryB#5]” was tested. Which “apparent KD of MS2 coat protein” value (input ligand: arginine 13.2 mM) did it give?
The value was 33.9 nM.

And the “apparent KD of MS2 coat protein” value [1]?
The value was 57.1 nM.

And the “apparent KD of MS2 coat protein” value [2]?
Its value is 52.9 nM.

What does the source list for “GCCAUCGGCGGAAGCCGAUGGGAUACAGAAGGAGCGUGGAUUAACACAGGUAGGUCGCUGGACAUGAGGAUCACCCAUGUAAUAG [SSAA #8]”?
apparent KD of MS2 coat protein (input ligand: arginine 13.2 mM): 17.4 nM; apparent KD of MS2 coat protein (input ligand: none): 26.2 nM; apparent KD of MS2 coat protein [1]: 27.2 nM; apparent KD of MS2 coat protein [2]: 32.4 nM; apparent KD of MS2 coat protein [3]: 21.7 nM

Which results are given for “UCAGGAAGAGCGGCCGCCACUGUUUGGCAUGCGGAUGAAGGAACAUGAGGAUCACCCAUGUAGAUUAGGACCGGGCUUGCGGAGA [szeemullin]”?
apparent KD of MS2 coat protein (input ligand: arginine 13.2 mM): 20.9 nM; apparent KD of MS2 coat protein (input ligand: none): 13.7 nM; apparent KD of MS2 coat protein [1]: 24.2 nM; apparent KD of MS2 coat protein [2]: 19.4 nM; apparent KD of MS2 coat protein [3]: 12.6 nM

What does the source list for “CCAUGGUUGACGGCCGCCACUCAUUAGUCUUUGAGGUUGGCACAUGAGGAUCACCCAUGUCUGCAGAGGACCGGGUCUCGCCACA [theeternabot_sameState_MS2_Trp_B_15]”?
apparent KD of MS2 coat protein (input ligand: arginine 13.2 mM): 39.8 nM; apparent KD of MS2 coat protein [1]: 67.3 nM; apparent KD of MS2 coat protein [2]: 54.4 nM

Which results are given for “CACGCACGAUCGGCCGCCACUCGUGUAGCUUACAUGAGGAUCACCCAUGUAUGUUCAUUCAUAUAGAGGACCGGGAUCGUGCGUG [#05 Same State - Tryptophan B]”?
apparent KD of MS2 coat protein (input ligand: arginine 13.2 mM): 9.09 nM; apparent KD of MS2 coat protein (input ligand: none): 12.8 nM; apparent KD of MS2 coat protein [1]: 18.5 nM; apparent KD of MS2 coat protein [2]: 12.1 nM; apparent KD of MS2 coat protein [3]: 11.7 nM

“GCACCAGGUACGGAUACCAGCUGCCCGAGAUACAUGAGGAUCACCCAUGUGACCUGGUUUAGCCCUUGGCAGCUGUACCUGGUGC [#14 Same State - Theophylline B]” was tested. Which “apparent KD of MS2 coat protein” value (input ligand: arginine 13.2 mM) did it give?
Its value is 13 nM.

And the “apparent KD of MS2 coat protein” value [1]?
The value was 13.8 nM.

And the “apparent KD of MS2 coat protein” value [3]?
The value was 14.3 nM.

With “UCAGUGGGUUCGGCCGCCACUUGAGUGAUGGUGCCUCAAUAAGUCUACAUGAGGAUCACCCAUGUAAGGACCGGGAAUUUUAUGG [theeternabot_exclusion_MS2_Trp_B_19]” as the sequence, how does the “apparent KD of MS2 coat protein” value (input ligand: arginine 13.2 mM) read?
Its value is 33.3 nM.

And the “apparent KD of MS2 coat protein” value [1]?
The value was 59.1 nM.

What about the “apparent KD of MS2 coat protein” value [2] of the same sequence?
The value was 43.2 nM.

With “GCGAUGGAGCGAAGGAGCGGCUGUGACUACAUGAGGAUCACCCAUGUACGAUUGUAAGGUAGCCAGGUAGGUCGCGCUCCAUCGC [SSAB NP+V+V2 #18]” as the sequence, how does the “apparent KD of MS2 coat protein” value (input ligand: arginine 13.2 mM) read?
The value was 14 nM.

What about the “apparent KD of MS2 coat protein” value (input ligand: none) of the same sequence?
The value was 16.3 nM.

And the “apparent KD of MS2 coat protein” value [1]?
Its value is 22.5 nM.

And the “apparent KD of MS2 coat protein” value [2]?
The value was 24.6 nM.

And the “apparent KD of MS2 coat protein” value [3]?
Its value is 15.8 nM.

Which “apparent KD of MS2 coat protein” value (input ligand: arginine 13.2 mM) does the source give for “CCAUAAGUACCGGUCCUCAGAUCCUCAUGACGAGGACCGGUACGGCCGCCACUCGAAACAUGAGGAUCACCCAUGUAAUAAUAUC [Brourdmod17]” here?
The value was 25.5 nM.

What about the “apparent KD of MS2 coat protein” value [1] of the same sequence?
The value was 53.1 nM.

And the “apparent KD of MS2 coat protein” value [2]?
The value was 66 nM.

Which “apparent KD of MS2 coat protein” value (input ligand: arginine 13.2 mM) does the source give for “UUUAACAAGAACGUCCUGAGUGACAAGCUACGAGGACCGGUACGGCCGCCACUCGUACCAAAACAUGAGGAUCACCCAUGUUAAA [theeternabot_exclusion_MS2_Trp_A_44]” here?
Its value is 13.4 nM.

And the “apparent KD of MS2 coat protein” value [1]?
The value was 19.3 nM.

And the “apparent KD of MS2 coat protein” value [2]?
Its value is 21.1 nM.

Which results are given for “ACGACAUGAGGAUCACCCAUGUAAGGUGAUACCAGACGAAGUAAUGUCCCUUGGCAGCACAAGCAUAGUUGCGAUUAUUGUACGA [JR_SSTheophyA_Sub006]”?
apparent KD of MS2 coat protein (input ligand: arginine 13.2 mM): 124 nM; apparent KD of MS2 coat protein [1]: 574 nM; apparent KD of MS2 coat protein [3]: 442 nM

What does the source list for “UUUAAGAACCGAAGGAGCGCCAGAAAUAAGAACGCUACAUGAGGAUCACCCAUGUAAUAAGGGCAGGUAGGUCGCGGAAUUUAAA [last]”?
apparent KD of MS2 coat protein (input ligand: arginine 13.2 mM): 17.9 nM; apparent KD of MS2 coat protein (input ligand: none): 21.2 nM; apparent KD of MS2 coat protein [1]: 33.4 nM; apparent KD of MS2 coat protein [2]: 24.7 nM; apparent KD of MS2 coat protein [3]: 21.4 nM

Which results are given for “AAAACAAUCUGAAGGAGCGUCACAUGAGGAUCACCCAUGUACAUGAGGAUCACCCAUGUGUGACAGGUAGGUCGCAGAAAAUACC [Exclusion Arginine B GF 3]”?
apparent KD of MS2 coat protein (input ligand: arginine 13.2 mM): 111 nM; apparent KD of MS2 coat protein (input ligand: none): 216 nM; apparent KD of MS2 coat protein [1]: 183 nM; apparent KD of MS2 coat protein [2]: 219 nM; apparent KD of MS2 coat protein [3]: 200 nM

How did the “apparent KD of MS2 coat protein” value (input ligand: arginine 13.2 mM) turn out when “CUGCCAUGCAGAGAUACCAGUGAGCUCAGAACAUGAGGAUCACCCAUGUACGCCGCCGAUCACCCUUGGCAGCUCUGCAUGGCAG [%*#)(]” was run?
The value was 12.2 nM.

What about the “apparent KD of MS2 coat protein” value (input ligand: none) of the same sequence?
The value was 12.4 nM.

What about the “apparent KD of MS2 coat protein” value [1] of the same sequence?
The value was 14.1 nM.

What about the “apparent KD of MS2 coat protein” value [2] of the same sequence?
Its value is 11.4 nM.

What about the “apparent KD of MS2 coat protein” value [3] of the same sequence?
Its value is 11.6 nM.

What does the source list for “GCCGCUGCCGCGAUAUGUAUGGGUGUGUAACGAGGACCGGUACGGCCGCCACUCGCGAUCGCACAUGAGGAUCACCCAUGUGUCC [Exclusion Tryp A GF18]”?
apparent KD of MS2 coat protein (input ligand: arginine 13.2 mM): 26.5 nM; apparent KD of MS2 coat protein [1]: 72.4 nM; apparent KD of MS2 coat protein [2]: 68 nM
